Data: US20110038881A1, “PROGNOSTIC ASSAY FOR DETERMINING T CELL RESPONSE TO HLA ANTIGENS AND USE THEREOF IN FIELD OF TISSUE TRANSPLANTATION” (priority 2007, published 2011)

B1: p15* (peptide)
chain: GTLRGYYNQSEAGSH
B2: p13* (peptide)
chain: HRVDLGTLRGYYNQS
B3: p10 (peptide)
chain: APWIEQEGPEYWDGE
B4: p46* (peptide)
chain: FQKWAAVVVPSGQEQR
B5: p3 (peptide)
chain: TSVSRPGRGEPRFIA
B6: p22 (peptide)
chain: RGYHQYAYDGKDYIA
B7: p30 (peptide)
chain: HKWEAAHVAEQLRAY
B8: p4 (peptide)
chain: PRFIAVGYVDDTQFV
B9: p48 (peptide)
chain: EQRYTCHVQHEGLPKP
B10: p33 (peptide)
chain: RAYLEGTCVEWLRRY
B11: p6 (peptide)
chain: VGYVDDTQFVRFDSD
B12: p50* (peptide)
chain: KPLTLRWEPSSQPTI
B13: p51* (peptide)
chain: LTLRWEPSSQPTIPI
B14: p12 (peptide)
chain: RKVKAHSQTHRVDLG
B15: p49 (peptide)
chain: EGLPKPLTLRWEPSS
B16: p19 (peptide)
chain: CDVGSDWRFLRGYHQ
B17: p27 (peptide)
chain: EDLRSWTAADMAAQT
B18: p43 (peptide)
chain: LTWQRDGEDQTQDTE
B19: p16* (peptide)
chain: RGYYNQSEAGSHTVQ
B20: p17* (peptide)
chain: HTVQRMYGCDVGSDW
B21: p28 (peptide)
chain: RSWTAADMAAQTTKH
B22: p24 (peptide)
chain: YAYDGKDYIALKEDL
B23: p5 (peptide)
chain: IAVGYVDDTQFVRFD
B24: p23 (peptide)
chain: HQYAYDGKDYIALKE
B25: p2* (peptide)
chain: MRYFFTSVSRPGRGE

target: HLA-DRB1*0401 (human); experiment: competition binding; conditions: modification not given

IC50 | Binder
1.82 µM | B1
4.04 µM | B2
> 100 µM | B3
0.326 µM | B4
5.48 µM | B5
81.5 µM | B6
0.118 µM | B7
> 100 µM | B8
57.4 µM | B9
9.17 µM | B10
97.5 µM | B11
0.134 µM | B12
0.497 µM | B13
100 µM | B14
0.497 µM | B15
0.543 µM | B16
> 100 µM | B17
> 100 µM | B18
0.494 µM | B19
2.12 µM | B20
1.53 µM | B21
3.87 µM | B22
31 µM | B23
17.7 µM | B24

target: HLA-DRB5*0101 (human); experiment: competition binding; conditions: modification not given

IC50 | Binder
0.612 µM | B1
12.4 µM | B2
73.5 µM | B3
> 100 µM | B5
40 µM | B6
0.004 µM | B25
0.755 µM | B8
9.19 µM | B11
45.8 µM | B12
7.98 µM | B14
0.033 µM | B16
4.1 µM | B18
0.175 µM | B19
12 µM | B20
40.5 µM | B21
0.798 µM | B23
1.5 µM | B24

target: HLA-DRB1*1501 (human); experiment: competition binding; conditions: modification not given

IC50 | Binder
0.033 µM | B1
0.088 µM | B2
51.2 µM | B3
> 100 µM | B4
18.7 µM | B5
> 100 µM | B6
0.938 µM | B7
1.17 µM | B25
> 100 µM | B9
4.74 µM | B10
1.78 µM | B11
5.61 µM | B12
2.44 µM | B13
> 100 µM | B14
50.2 µM | B15
0.598 µM | B16
0.648 µM | B17
> 100 µM | B18
> 100 µM | B19
2.83 µM | B20
> 100 µM | B21
> 100 µM | B22
2.97 µM | B23
> 100 µM | B24

target: HLA-DRB1*0101 (human); experiment: competition binding; conditions: modification not given

IC50 | Binder
0.406 µM | B1
0.089 µM | B2
13 µM | B3
0.218 µM | B4
0.648 µM | B5
9.49 µM | B6
0.029 µM | B7
0.002 µM | B25
0.748 µM | B8
1.92 µM | B9
0.025 µM | B10
27.7 µM | B11
0.458 µM | B12
0.525 µM | B13
21.6 µM | B14
0.497 µM | B15
0.009 µM | B16
> 100 µM | B17
> 100 µM | B18
0.035 µM | B20
0.067 µM | B21
0.035 µM | B22
2.77 µM | B23
0.406 µM | B24

target: HLA-DRB3*0101 (human); experiment: competition binding; conditions: modification not given

IC50 | Binder
> 100 µM | B1
> 100 µM | B2
75 µM | B3
1.73 µM | B4
> 100 µM | B5
1.28 µM | B6
0.806 µM | B7
> 100 µM | B25
0.196 µM | B8
20.5 µM | B9
8.94 µM | B10
0.245 µM | B11
3.55 µM | B12
29 µM | B13
> 100 µM | B14
4.69 µM | B15
> 100 µM | B16
1.88 µM | B17
> 100 µM | B19
0.529 µM | B20
1 µM | B21
> 100 µM | B22
2.29 µM | B24

target: HLA-DRB1*0301 (human); experiment: competition binding; conditions: modification not given

IC50 | Binder
> 100 µM | B1
> 100 µM | B2
49.7 µM | B3
7.35 µM | B4
> 100 µM | B5
8.48 µM | B6
16.5 µM | B7
2.84 µM | B25
12 µM | B8
> 100 µM | B9
34.9 µM | B10
0.6 µM | B11
> 100 µM | B12
> 100 µM | B13
> 100 µM | B14
> 100 µM | B15
1.5 µM | B16
> 100 µM | B17
97.5 µM | B18
> 100 µM | B19
5.61 µM | B20
> 100 µM | B21
> 100 µM | B22
0.316 µM | B23
52 µM | B24

target: HLA-DRB1*1101 (human); experiment: competition binding; conditions: modification not given

IC50 | Binder
1.86 µM | B1
8.06 µM | B2
58.1 µM | B3
0.626 µM | B4
1.02 µM | B5
1.75 µM | B6
0.379 µM | B7
0.003 µM | B25
5.48 µM | B8
0.693 µM | B9
0.872 µM | B10
2.8 µM | B11
11.4 µM | B12
> 100 µM | B13
> 100 µM | B14
2.06 µM | B15
0.029 µM | B16
> 100 µM | B17
> 100 µM | B18
3.18 µM | B19
6.48 µM | B20
10.5 µM | B21
0.184 µM | B22
9.22 µM | B23
0.684 µM | B24

target: HLA-DRB1*0701 (human); experiment: competition binding; conditions: modification not given

IC50 | Binder
2.96 µM | B1
36.7 µM | B2
79.4 µM | B3
0.7 µM | B4
6.93 µM | B5
33.4 µM | B6
0.401 µM | B7
0.045 µM | B25
0.85 µM | B8
29.5 µM | B9
0.637 µM | B10
3.16 µM | B11
0.097 µM | B12
0.072 µM | B13
0.486 µM | B14
71 µM | B15
0.341 µM | B16
> 100 µM | B17
> 100 µM | B18
0.13 µM | B19
1.59 µM | B20
12.8 µM | B21
4.47 µM | B22
3.1 µM | B23
37.8 µM | B24

target: HLA-DRB4*0101 (human); experiment: competition binding; conditions: modification not given

IC50 | Binder
> 100 µM | B1
67.1 µM | B2
> 100 µM | B3
> 100 µM | B5
> 100 µM | B6
> 100 µM | B25
45.7 µM | B8
12.6 µM | B10
9 µM | B11
4.58 µM | B12
26 µM | B13
2.97 µM | B14
33.9 µM | B15
51.4 µM | B16
> 100 µM | B19
> 100 µM | B22
> 100 µM | B23
> 100 µM | B24

target: HLA-DRB1*1301 (human); experiment: competition binding; conditions: modification not given

IC50 | Binder
> 100 µM | B1
> 100 µM | B2
> 100 µM | B3
> 100 µM | B4
> 100 µM | B5
> 100 µM | B6
> 100 µM | B7
0.399 µM | B25
> 100 µM | B8
> 100 µM | B9
13.4 µM | B10
> 100 µM | B11
> 100 µM | B12
> 100 µM | B13
0.385 µM | B14
> 100 µM | B15
100 µM | B16
> 100 µM | B17
> 100 µM | B18
> 100 µM | B19
> 100 µM | B20
> 100 µM | B21
> 100 µM | B22
> 100 µM | B23
> 100 µM | B24
